Laboratory results taken from article PMC12784346, “Paratope mapping of tilvestamab, an anti-AXL function-blocking antibody, using high-throughput bacterial expression of secreted scFv-osmY fusion proteins” (Bioscience Reports, 2025).

Biological target: T1, AXL Ig1 domain fused to human Fc (Homo sapiens, UniProt P30530)
T1 construct: AXL receptor tyrosine kinase, human, Ig1 domain of the extracellular domain; Construct limits and production are in the Supplementary Information; also called AXL Ig1-Fc; AXL-Ig1-Fc
Test: BLI; Octet RED96; His-tagged scFv-osmY captured on Ni-NTA tips from undiluted bacterial supernatant (600 s); AXL Ig1 domain Fc 5.6 ug/ml in kinetic buffer (0.02% Tween 20, 0.05% sodium azide, 0.1% BSA in PBS) as analyte; rat Axl-Fc as control; traces scored by eye (normal, fast, very fast, weak, weak fast, none)
Settings: one partner purified

Row | Binder | binding result
1 | tilvestamab scFv-osmY P238A (scFv, V domains shown, VH of tilvestamab, as the VH of m1; linker; VL of tilvestamab, as the VL of m1; numbers count on: the scFv-osmY fusion protein; source: E. coli T7 expression strain, secreted, culture supernatant used directly; not shown: His6, C-terminal, kept) VH: EVQLVESGGGLVQPGGSLRLSCAASGYSFTDFYINWVRQAPGKGLEWVARIFPGGDNTYYNEKFKGRFTLSADTSKSTAYLQMNSLRAEDTAVYYCARRGLYYAMDYWGQGTLVTVSS VL: DIQMTQSPSSLSASVGDRVTITCRSSQSLVHSNGIPYLHWYQQKPGKAPKLLIYRVSNRFSGVPSRFSGSGSGTDFTLTISSLQPEDFATYYCSQGTHVPATFGQGTKVEIK | binds
2 | tilvestamab scFv-osmY F33T (scFv, V domains shown, VH of tilvestamab, as the VH of m1; numbers count on: the scFv-osmY fusion protein; linker; VL of tilvestamab, as the VL of m1; source: E. coli T7 expression strain, secreted, culture supernatant used directly; not shown: His6, C-terminal, kept) VH: EVQLVESGGGLVQPGGSLRLSCAASGYSFTDTYINWVRQAPGKGLEWVARIFPGGDNTYYNEKFKGRFTLSADTSKSTAYLQMNSLRAEDTAVYYCARRGLYYAMDYWGQGTLVTVSS VL: DIQMTQSPSSLSASVGDRVTITCRSSQSLVHSNGIPYLHWYQQKPGKAPKLLIYRVSNRFSGVPSRFSGSGSGTDFTLTISSLQPEDFATYYCSQGTHVPPTFGQGTKVEIK | binds
